Article PMC2804184

Target: p97 C-terminal peptide (last 10 residues, …), N-terminally labeled with fluorescein
Assay: fluorescence polarisation

With “PLAA C-terminal PUL domain (residues 454-738) (domain or fragment)” the Kd was 5 µM.
